The results in this text go back to patent US20030070184A1, “LIGANDS FOR DISCOIDIN DOMAIN RECEPTOR TYROSINE KINASES AND COMPLEXES THEREOF” (priority 1999, published 2003).

This experiment has as its system DDR receptors. In words: Effect of other agents on DDR activity / collagen-induced DDR tyrosine phosphorylation. Type of experiment: cell-based. The conditions noted are these: collagen-associated molecules.

B1: decorin: collagen-associated molecule (protein, UniProt P07585 31-359, looked up)
Decorin: DEASGIGPEVPDDRDFEPSLGPVCPFRCQCHLRVVQCSDLGLDKVPKDLPPDTTLLDLQNNKITEIKDGDFKNLKNLHALILVNNKISKVSPGAFTPLVKLERLYLSKNQLKELPEKMPKTLQELRAHENEITKVRKVTFNGLNQMIVIELGTNPLKSSGIENGAFQGMKKLSYIRIADTNITSIPQGLPPSLTELHLDGNKISRVDAASLKGLNNLAKLGLSFNSISAVDNGSLANTPHLRELHLDNNKLTRVPGGLAEHKYIQVVYLHNNNISVVGSSDFCPPGHNTKKASYSGVSLFSNPVQYWEIQPSTFRCVYVRSAIQLGNYK
Turning to B1, the “effect on DDR activity” value is “no effect”.
